Numbering of substitutions follows the chain as printed.
T1: T47D (native PRLR expressing cell line) (Homo sapiens, UniProt P16471)
T1 construct: a native PRLR expressing cell line (T47D); endogenous in cells; host or cells: T47D
T1 sequence (P16471 25-622): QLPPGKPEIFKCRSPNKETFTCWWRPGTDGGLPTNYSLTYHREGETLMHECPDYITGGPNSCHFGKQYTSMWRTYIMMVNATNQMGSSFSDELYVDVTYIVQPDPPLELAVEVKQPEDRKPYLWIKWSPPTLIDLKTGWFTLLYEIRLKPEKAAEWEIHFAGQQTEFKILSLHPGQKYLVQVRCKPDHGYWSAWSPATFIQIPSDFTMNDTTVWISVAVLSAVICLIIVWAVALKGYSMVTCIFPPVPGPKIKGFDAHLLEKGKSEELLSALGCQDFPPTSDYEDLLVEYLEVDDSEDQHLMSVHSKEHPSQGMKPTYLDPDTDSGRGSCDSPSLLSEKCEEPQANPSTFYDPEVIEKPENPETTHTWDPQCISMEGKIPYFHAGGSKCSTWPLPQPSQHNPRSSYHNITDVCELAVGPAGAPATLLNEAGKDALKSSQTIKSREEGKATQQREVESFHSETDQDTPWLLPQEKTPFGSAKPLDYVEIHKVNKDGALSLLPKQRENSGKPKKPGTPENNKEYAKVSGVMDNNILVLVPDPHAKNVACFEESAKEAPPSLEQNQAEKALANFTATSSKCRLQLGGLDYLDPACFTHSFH

T2: HEK293/hPRLR (Homo sapiens, UniProt P16471)
T2 construct: HA; expressed in transfected cells; host or cells: HEK293
T2 sequence (P16471 25-622): T1 sequence (P16471 25-622)

T3: HEK293/mPRLR (Mus musculus, UniProt Q08501)
T3 construct: HA; expressed in transfected cells; host or cells: HEK293
T3 sequence (Q08501 20-608): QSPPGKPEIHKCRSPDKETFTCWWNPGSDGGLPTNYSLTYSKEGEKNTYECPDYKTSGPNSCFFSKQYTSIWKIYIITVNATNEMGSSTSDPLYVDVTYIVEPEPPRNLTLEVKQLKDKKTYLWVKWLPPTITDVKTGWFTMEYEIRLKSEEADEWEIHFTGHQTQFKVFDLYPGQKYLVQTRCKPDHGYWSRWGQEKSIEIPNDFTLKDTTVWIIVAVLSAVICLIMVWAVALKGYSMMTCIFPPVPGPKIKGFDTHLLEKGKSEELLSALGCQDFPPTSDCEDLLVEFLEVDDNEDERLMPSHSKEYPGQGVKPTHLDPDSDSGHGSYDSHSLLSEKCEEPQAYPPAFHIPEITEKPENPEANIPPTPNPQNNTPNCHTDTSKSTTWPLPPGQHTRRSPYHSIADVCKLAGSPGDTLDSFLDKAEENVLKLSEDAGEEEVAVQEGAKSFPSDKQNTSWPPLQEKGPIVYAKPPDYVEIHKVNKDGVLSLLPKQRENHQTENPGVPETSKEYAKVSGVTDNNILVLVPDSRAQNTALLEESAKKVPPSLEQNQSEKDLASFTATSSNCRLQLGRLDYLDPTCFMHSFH

B1: H1H6960N: human IgG1 Fc form of H2M6960N; anti-PRLR; HCVR/LCVR SEQ ID NOs 322/330 (antibody, V domains shown)
VH: EVQLVESGGGLVKPGGSLRLSCAASGITFSSYSMNWVRQAPGKGLEWVSSISTRSSLIHYADSVKGRFTISRDNAKNSLYLQMNSLRDEDTAVYYCARWDAAAAFDYWGQGTLVIVSS
VL: DIQLTQSPSFLSASVGDRVTITCWASQGISSYLAWYQQKPGKAPKLLIYVASTLQSGVPSRFSGSGSGTEFTLTISSLQPEDFATYFCQQLNSYPLTFGGGTKVEIK
modifications: human IgG1 Fc
B2: H1H6967N: human IgG1 Fc form of H2M6967N; anti-PRLR; HCVR/LCVR SEQ ID NOs 354/362 (antibody, V domains shown)
VH: EVQLVESGGDLVHPGRSLRLSCAASGFPFDEYAMHWVRQVPGKGLEWVSGISWSNNNIGYADSVKGRFTISRDNAKNSLYLQMNSLRPEDTAFYYCAKSGIFDSWGQGTLVTVSS
VL: EIVMTQSPATLSVSPGERATLSCRASQSVSRDLAWYQQKPGQAPRLLIHGASTRATGIPARFSGSGSGAEFTLIISSLQSEDFAVYYCQQYNNWPLTFGGGTKVEIK
modifications: human IgG1 Fc
B3: H1H6975N: human IgG1 Fc form of H2M6975N; anti-PRLR; HCVR/LCVR SEQ ID NOs 370/378 (antibody, V domains shown)
VH: EVHLVESGGGLVQPGGSLRLSCAASGFTFSSYEMNWVRQTPGKGLEWISHISSRSVIIYYADSVKGRFTISRDNAKNSLFLQMNSLRAEDTAVYFCAGITIFGIPEYWGQGTLVTVSS
VL: EIVLTQSPATLSLSPGERATLSCRASQSVSSYFAWYQQKPGQAPRLLIYDASSRATGIPTRFSGSGSGTDFTLTISSLEPEDFAVYYCQQRSSWPITFGQGTRLEIK
modifications: human IgG1 Fc
B4: H1H6958N2: human IgG1 Fc form of H2M6958N2; anti-PRLR, receptor blocking; HCVR/LCVR SEQ ID NOs 290/298 (antibody, V domains shown)
VH: QVQLVESGGGVVQPGRSLRLSCGASGFTFRNYGMQWVRQGPGKGLEWVTLISFDGNDKYYADSVKGRFTISRDNSKNTLFLQMNSLRTEDTAVYYCARGGDFDYWGQGTLVTVSS
VL: DIQMTQSPSSLSASVGDRVTITCRASQDIRKDLGWYQQKPGKAPKRLIYAASSLHSGVPSRFSGSGSGTEFTLTISSLQPEDFATYYCLQHNSYPMYTFGQGTKLEIK
modifications: human IgG1 Fc
B5: H1H6966N: human IgG1 Fc form of H2M6966N; anti-PRLR; HCVR/LCVR SEQ ID NOs 338/346 (antibody, V domains shown)
VH: QVQLVQSGAEVQKPGASVKVSCKVSGYTLTALSIHWVRQAPGKGLEWMGNFDPGDGETIHAQKFQGRVTMTGDTSTDTAYMELSSLRSEDTAVYYCVGVTFDYWGQGTLVTVSS
VL: B2 VL with S30A, R31S, D32N, I48L, H49Y, A69T, I74T, V85L, Q90H
modifications: human IgG1 Fc
B6: H1H6959N2: human IgG1 Fc form of H2M6959N2; anti-PRLR; HCVR/LCVR SEQ ID NOs 306/314 (antibody, V domains shown)
VH: EVQLVESGGGLVQPGRSLRLSCAASGFTFDDYAMHWVRQAPGKGLEWVSGISWHSGIIGYADSVKGRFTISRDNAKNSLYLQMNSLRTEDAALYYCAKIGSYFYFDSWGQGTLVTVSS
VL: EIVLTQSPGTLSLSPGERATLSCRASQSVSSNYLAWYQQKPGQAPRLLIYGASSRATGIPDRFSGSGSGTDFTLTISRLEPEDFAVYYCQQFGSSGYTFGQGTNLEIK
modifications: human IgG1 Fc

Test system: HEK293/hPRLR/STAT5-Luc cells (human PRLR)
Assay: STAT5-Luc luciferase reporter assay, blocking of PRL-mediated receptor activation
Format: cell-based
Conditions: 5 nM constant PRL, 6 hr at 37° C.
Text: The ability of anti-PRLR antibodies to block prolactin (PRL)-mediated receptor activation was examined in a luciferase-based reporter assay. The endocrine hormone PRL binds to the extracellular domain of its cognate receptor PRLR, triggering rapid homodimerization and activating several downstream signaling cascades.
In this example, an engineered cell line was used to determine the ability of anti-PRLR antibodies to block ligand activation of the PRLR receptor. Briefly, HEK293/hPRLR/STAT5-Luc cell lines with stable incorporation of a human PRLR expression cassette and the STAT5-dependent luciferase reporter were generated via sequential rounds of Lipofectamine® 2000-mediated transfection (LifeTechnologies, Carlsbad, Calif.). Cells were selected for at least two weeks in the presence of 500 μg/mL G418 (hPRLR) and 100 μg/mL hygromycin B (STAT5-Luc). The STAT5-Luc assay utilized 2×10^5 HEK293/hPRLR/STAT5-Luc cells seeded in complete growth medium on PDL-coated 96 well plates grown overnight at 37° C., 5% CO2. To generate antibody inhibition curves, cells were incubated (6 hr at 37° C.) with serially diluted anti-human PRLR antibodies (100 nM to 24 pM) in the presence of 5 nM constant PRL before recording signal. PRL dose response curves were generated by the addition of serially diluted PRL (100 nM to 24 pM) to cells and recording signal after a 6 hr (37° C.) incubation in the absence of antibodies. The ability of the antibodies to activate PRLR in the absence of ligand was also assessed.
Luciferase activity was measured with ONE-GLO™ reagent (Promega, Madison, Wis.). Relative light units (RLUs) were measured on a Victor luminometer (Perkin Elmer, Shelton, Conn.). EC50/IC50 values were determined from a four-parameter logistic equation over an 8-point response curve using GraphPad Prism. Percent blocking and percent activation are reported for the highest antibody dose.

| Molecule | IC50 [pM] |
| --- | --- |
| B1 | 1580 |
| B2 | 768 |
| B3 | 241 |
| B4 | 198 |

Same assay, conditions: 100 nM antibody, 5 nM PRL

| Molecule | Percent Blocking at 100 nM Antibody [%] |
| --- | --- |
| B1 | 100 |
| B5 | 54 |
| B2 | 100 |
| B3 | 100 |
| B6 | 52 |
| B4 | 100 |

Biological target: T1, T47D (native PRLR expressing cell line)
Assay: FACS cell surface binding
Conditions: not given
Protocol: (§1) The ability of anti-PRLR antibodies to selectively bind PRLR expressing cell lines was next determined. Human, monkey macaca fascicularis, and mouse PRLR constructs with an HA tag were stably introduced into HEK293 cells via Lipofectamine 2000-mediated transfection methodology. Transfectants (HEK293/hPRLR, HEK293/mfPRLR and HEK293/mPRLR) were selected for at least 2 weeks in complete growth media plus G418.
(§2) Cell surface expression of PRLR on 293/hPRLR cells was assessed via FACS analysis. Briefly, 1×10^5 cells were incubated with 10 μg/ml of Control antibody I, or an isotype control for 30 min on ice in antibody dilution buffer. Following two washes with antibody dilution buffer, cells were incubated with 10 μg/ml of PE conjugated anti-human secondary antibodies for 30 min on ice. Following two additional washes, samples were run on a Hypercyt® cytometer and analyzed in FORECYT™ (IntelliCyt, Albuquerque, N. Mex.). The mean fluorescence intensities (MFI) were expressed as fold change above isotype control levels (background). FACS binding confirmed that Control I selectively bound to 293/hPRLR expressing cells with MFIs that were 30 fold above background (isotype ctrl) levels and less than 2 fold binding on parental cells.
(§3) Next, the anti-PRLR antibodies of the present invention were tested via FACS for selective binding to the engineered overexpressing PRLR HEK293 cell lines, as well as to non-expressing HEK293 cells and a native PRLR expressing cell line (T47D).

| Molecule | FACS Cell Binding (Fold Above Background) |
| --- | --- |
| B1 | 33 |
| B5 | 31 |
| B2 | 41 |
| B3 | 46 |
| B6 | 9 |
| B4 | 37 |

Biological target: T2, HEK293/hPRLR
Assay: FACS cell surface binding
Conditions: not given
Protocol: as §1, §2, §3

| Molecule | FACS Cell Binding (Fold Above Background) |
| --- | --- |
| B1 | 29 |
| B5 | 29 |
| B2 | 38 |
| B3 | 38 |
| B6 | 6 |
| B4 | 35 |

Test system: HEK293 (non-expressing parental cells)
Assay: FACS cell surface binding
Conditions: not given
Protocol: as §1, §2, §3

| Molecule | FACS Cell Binding (Fold Above Background) |
| --- | --- |
| B1 | 1 |
| B5 | 1 |
| B2 | 1 |
| B3 | 1 |
| B6 | 1 |
| B4 | 1 |

Biological target: T3, HEK293/mPRLR
Assay: FACS cell surface binding
Conditions: not given
Protocol: as §1, §2, §3

| Molecule | FACS Cell Binding (Fold Above Background) |
| --- | --- |
| B1 | 1 |
| B5 | 1 |
| B2 | 2 |
| B3 | 1 |
| B6 | 2 |
| B4 | 1 |

Source: patent publication US9688764B2, “Methods of treating breast cancer by administering anti-human prolactin receptor (PRLR) antibodies” (REGENERON PHARMACEUTICALS, INC., priority 2013, dated 2017)
